The source of these data is PMC12700559, “Structural basis for simvastatin-induced skeletal muscle weakness associated with type 1 ryanodine receptor T4709M mutation” (The Journal of Clinical Investigation, 2025).

The target in this assay is type 1 ryanodine receptor (RyR1), endogenous channel from mouse skeletal muscle (mouse (endogenous in mouse skeletal muscle)) (UniProt E9PZQ0). Description: cryo-EM structure; endogenous RyR1 purified from mouse skeletal muscle, ~15 uM protomer, in CHAPS/DOPC buffer; with 5 mM EGTA only or with 10 mM ATP, 5 mM caffeine, 30 uM free Ca2+, with or without 10 mM simvastatin lactone; C4 symmetry imposed.

type 1 ryanodine receptor (RyR1), endogenous channel from mouse skeletal muscle, E9PZQ0 1-5035 (natural protein), sequence (E9PZQ0 whole entry): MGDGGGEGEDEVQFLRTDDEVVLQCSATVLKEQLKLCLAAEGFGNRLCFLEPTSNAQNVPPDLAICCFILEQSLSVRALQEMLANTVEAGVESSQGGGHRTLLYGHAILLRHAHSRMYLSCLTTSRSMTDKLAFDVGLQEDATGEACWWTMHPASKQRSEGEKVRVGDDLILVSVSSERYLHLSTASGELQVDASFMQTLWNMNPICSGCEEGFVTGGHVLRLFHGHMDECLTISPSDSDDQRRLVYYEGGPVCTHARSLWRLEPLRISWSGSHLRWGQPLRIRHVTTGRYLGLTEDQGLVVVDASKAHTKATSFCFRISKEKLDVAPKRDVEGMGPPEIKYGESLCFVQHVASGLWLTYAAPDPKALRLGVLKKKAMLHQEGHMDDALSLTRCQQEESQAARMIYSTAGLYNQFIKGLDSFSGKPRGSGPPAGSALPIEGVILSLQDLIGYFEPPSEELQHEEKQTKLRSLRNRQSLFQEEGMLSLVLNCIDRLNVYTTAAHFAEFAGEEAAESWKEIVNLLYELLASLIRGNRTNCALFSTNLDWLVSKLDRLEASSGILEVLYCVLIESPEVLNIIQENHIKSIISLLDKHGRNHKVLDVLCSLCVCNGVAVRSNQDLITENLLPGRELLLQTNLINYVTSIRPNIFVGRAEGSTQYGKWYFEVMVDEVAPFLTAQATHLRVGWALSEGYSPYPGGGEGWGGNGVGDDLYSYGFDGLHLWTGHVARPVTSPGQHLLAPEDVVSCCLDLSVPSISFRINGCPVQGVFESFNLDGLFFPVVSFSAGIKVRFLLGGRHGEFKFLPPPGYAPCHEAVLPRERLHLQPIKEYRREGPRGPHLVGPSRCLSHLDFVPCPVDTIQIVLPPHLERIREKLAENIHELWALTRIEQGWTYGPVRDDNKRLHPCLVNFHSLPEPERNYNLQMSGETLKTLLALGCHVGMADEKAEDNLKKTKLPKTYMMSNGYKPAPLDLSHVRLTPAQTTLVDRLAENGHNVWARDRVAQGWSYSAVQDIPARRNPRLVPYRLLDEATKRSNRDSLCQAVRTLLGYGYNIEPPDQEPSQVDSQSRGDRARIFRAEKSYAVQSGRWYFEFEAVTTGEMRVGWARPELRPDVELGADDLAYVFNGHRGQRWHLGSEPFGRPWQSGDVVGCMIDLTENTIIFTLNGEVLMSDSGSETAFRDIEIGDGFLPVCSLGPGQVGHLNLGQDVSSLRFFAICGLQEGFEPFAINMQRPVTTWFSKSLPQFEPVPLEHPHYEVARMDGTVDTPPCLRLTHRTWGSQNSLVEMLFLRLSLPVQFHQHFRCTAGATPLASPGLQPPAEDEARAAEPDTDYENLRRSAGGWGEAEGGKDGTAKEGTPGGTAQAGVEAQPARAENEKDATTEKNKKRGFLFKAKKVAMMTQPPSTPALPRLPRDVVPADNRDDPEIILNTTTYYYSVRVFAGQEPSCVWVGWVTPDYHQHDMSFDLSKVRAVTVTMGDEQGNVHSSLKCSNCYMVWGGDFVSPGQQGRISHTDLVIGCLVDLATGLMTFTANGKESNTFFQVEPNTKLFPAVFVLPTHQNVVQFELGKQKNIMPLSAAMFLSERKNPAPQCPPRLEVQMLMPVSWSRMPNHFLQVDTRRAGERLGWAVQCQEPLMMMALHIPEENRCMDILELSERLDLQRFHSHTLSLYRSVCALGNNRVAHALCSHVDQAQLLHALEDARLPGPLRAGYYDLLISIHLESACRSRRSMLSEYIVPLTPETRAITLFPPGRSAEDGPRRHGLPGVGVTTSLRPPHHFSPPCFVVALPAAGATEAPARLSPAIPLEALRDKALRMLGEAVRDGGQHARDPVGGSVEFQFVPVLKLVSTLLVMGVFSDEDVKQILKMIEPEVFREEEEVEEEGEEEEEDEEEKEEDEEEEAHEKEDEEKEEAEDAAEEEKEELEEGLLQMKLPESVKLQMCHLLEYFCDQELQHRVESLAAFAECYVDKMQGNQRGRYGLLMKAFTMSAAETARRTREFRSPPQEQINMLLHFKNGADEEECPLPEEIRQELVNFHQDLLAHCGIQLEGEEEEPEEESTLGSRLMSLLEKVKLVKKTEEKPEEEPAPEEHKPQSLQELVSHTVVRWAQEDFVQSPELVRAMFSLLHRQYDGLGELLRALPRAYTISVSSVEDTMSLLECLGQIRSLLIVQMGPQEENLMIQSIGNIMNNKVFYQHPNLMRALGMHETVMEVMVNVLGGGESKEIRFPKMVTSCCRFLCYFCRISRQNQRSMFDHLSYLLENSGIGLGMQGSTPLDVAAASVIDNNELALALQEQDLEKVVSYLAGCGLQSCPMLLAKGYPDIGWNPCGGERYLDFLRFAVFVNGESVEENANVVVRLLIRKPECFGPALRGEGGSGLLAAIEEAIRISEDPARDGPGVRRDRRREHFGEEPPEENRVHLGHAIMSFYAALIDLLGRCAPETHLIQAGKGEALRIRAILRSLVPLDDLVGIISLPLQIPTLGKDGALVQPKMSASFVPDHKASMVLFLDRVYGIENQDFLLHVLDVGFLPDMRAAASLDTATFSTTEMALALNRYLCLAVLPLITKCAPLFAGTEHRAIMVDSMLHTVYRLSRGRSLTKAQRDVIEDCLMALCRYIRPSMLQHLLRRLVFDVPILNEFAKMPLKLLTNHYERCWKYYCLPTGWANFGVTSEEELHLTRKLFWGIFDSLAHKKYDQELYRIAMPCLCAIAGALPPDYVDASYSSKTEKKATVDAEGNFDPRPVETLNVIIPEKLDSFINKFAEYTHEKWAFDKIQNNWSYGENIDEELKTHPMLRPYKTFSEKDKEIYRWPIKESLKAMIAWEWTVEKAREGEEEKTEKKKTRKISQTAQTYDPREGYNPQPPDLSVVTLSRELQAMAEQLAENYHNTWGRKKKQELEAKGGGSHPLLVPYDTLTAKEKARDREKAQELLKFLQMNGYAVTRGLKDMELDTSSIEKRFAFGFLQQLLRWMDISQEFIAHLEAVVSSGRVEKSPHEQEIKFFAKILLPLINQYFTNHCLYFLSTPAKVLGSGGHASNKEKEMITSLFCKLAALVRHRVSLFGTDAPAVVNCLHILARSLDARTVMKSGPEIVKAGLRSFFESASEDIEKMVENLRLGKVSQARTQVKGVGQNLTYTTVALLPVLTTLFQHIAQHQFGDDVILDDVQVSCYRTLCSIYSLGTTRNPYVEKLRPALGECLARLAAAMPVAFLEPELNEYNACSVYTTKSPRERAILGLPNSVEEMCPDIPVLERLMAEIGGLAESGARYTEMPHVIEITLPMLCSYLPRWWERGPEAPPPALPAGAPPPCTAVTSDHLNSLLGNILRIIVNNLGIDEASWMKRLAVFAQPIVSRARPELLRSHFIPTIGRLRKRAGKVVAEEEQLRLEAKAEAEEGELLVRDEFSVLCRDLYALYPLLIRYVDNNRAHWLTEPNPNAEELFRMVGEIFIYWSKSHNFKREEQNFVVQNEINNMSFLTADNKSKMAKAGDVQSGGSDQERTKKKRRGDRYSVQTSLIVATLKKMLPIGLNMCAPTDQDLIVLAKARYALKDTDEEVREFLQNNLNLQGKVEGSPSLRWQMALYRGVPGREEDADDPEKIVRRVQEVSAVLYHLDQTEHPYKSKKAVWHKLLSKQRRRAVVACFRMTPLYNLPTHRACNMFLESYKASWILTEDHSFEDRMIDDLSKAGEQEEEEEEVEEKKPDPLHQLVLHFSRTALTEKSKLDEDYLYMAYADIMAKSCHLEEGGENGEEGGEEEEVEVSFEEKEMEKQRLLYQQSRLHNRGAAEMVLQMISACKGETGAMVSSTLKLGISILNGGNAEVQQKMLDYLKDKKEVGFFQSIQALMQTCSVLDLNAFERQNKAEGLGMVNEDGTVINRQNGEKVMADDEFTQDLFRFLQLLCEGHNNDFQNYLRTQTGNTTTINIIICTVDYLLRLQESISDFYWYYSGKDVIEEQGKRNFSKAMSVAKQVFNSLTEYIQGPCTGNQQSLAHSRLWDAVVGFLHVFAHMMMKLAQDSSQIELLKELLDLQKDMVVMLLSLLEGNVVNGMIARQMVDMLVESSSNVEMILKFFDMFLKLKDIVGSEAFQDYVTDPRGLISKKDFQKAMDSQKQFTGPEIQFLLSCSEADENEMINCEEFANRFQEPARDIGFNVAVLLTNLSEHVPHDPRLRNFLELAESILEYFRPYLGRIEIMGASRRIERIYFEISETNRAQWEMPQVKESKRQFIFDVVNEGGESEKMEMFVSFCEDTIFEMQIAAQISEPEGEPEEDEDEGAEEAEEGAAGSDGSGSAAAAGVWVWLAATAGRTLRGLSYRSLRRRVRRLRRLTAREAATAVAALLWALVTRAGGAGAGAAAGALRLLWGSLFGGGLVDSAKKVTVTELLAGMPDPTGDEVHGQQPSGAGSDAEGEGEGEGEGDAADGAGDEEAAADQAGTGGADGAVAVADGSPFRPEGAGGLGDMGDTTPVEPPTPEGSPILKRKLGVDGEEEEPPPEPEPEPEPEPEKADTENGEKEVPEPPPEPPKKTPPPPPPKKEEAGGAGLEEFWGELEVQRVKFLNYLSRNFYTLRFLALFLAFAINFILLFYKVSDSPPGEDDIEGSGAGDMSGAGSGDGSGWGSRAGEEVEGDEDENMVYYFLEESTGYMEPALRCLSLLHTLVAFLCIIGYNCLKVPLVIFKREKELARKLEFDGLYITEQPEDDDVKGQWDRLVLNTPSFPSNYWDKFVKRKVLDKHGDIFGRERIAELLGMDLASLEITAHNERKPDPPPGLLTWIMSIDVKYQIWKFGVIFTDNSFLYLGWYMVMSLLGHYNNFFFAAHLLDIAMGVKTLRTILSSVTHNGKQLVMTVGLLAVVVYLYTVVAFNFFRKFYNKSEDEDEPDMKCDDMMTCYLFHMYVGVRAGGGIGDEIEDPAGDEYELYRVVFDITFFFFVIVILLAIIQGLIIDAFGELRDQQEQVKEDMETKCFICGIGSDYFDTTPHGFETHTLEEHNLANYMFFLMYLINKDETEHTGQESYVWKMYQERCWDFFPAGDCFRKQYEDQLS

In general, stoichiometry N refers to the number of molecules, sites or subunits per partner or assembly. Turning to “type 1 ryanodine receptor (RyR1), endogenous channel from mouse skeletal muscle, E9PZQ0 1-5035 (natural protein)”, the stoichiometry N came to 4.
